T1: G9a and GLP (Homo sapiens, UniProt Q96KQ7+Q9H9B1)
T1 sequence (Q96KQ7 2-1210 limits assumed): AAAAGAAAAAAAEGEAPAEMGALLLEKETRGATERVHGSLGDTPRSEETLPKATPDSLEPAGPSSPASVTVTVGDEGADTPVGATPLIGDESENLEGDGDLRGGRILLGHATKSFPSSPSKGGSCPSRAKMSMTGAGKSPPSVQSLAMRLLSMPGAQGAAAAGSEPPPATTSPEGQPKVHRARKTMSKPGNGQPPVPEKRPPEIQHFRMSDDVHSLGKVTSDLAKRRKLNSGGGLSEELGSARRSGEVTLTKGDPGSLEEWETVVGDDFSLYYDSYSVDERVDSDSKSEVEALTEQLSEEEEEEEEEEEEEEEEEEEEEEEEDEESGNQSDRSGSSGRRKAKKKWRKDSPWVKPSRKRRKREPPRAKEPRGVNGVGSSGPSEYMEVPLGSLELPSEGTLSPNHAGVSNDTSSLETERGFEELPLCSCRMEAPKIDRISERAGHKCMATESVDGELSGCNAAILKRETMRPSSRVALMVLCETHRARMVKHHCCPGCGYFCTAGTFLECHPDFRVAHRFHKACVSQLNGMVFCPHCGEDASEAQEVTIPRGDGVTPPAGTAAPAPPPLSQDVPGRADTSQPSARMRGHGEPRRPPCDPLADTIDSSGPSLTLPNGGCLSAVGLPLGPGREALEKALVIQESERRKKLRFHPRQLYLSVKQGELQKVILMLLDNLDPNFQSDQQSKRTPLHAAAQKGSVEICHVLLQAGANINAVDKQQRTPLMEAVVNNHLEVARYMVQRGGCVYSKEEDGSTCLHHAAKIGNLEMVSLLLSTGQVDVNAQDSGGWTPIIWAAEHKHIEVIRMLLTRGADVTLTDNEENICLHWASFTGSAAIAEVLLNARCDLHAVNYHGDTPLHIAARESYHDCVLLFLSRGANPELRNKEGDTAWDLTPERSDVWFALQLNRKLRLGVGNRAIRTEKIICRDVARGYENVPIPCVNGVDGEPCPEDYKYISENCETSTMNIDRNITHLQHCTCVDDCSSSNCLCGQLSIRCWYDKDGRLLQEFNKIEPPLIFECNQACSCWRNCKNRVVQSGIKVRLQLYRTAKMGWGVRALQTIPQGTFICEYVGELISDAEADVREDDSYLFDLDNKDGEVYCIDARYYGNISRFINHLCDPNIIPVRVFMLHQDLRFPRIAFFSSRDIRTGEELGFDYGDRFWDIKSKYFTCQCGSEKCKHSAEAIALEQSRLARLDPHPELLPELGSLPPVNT
T1 sequence (Q9H9B1 2-1298 limits assumed): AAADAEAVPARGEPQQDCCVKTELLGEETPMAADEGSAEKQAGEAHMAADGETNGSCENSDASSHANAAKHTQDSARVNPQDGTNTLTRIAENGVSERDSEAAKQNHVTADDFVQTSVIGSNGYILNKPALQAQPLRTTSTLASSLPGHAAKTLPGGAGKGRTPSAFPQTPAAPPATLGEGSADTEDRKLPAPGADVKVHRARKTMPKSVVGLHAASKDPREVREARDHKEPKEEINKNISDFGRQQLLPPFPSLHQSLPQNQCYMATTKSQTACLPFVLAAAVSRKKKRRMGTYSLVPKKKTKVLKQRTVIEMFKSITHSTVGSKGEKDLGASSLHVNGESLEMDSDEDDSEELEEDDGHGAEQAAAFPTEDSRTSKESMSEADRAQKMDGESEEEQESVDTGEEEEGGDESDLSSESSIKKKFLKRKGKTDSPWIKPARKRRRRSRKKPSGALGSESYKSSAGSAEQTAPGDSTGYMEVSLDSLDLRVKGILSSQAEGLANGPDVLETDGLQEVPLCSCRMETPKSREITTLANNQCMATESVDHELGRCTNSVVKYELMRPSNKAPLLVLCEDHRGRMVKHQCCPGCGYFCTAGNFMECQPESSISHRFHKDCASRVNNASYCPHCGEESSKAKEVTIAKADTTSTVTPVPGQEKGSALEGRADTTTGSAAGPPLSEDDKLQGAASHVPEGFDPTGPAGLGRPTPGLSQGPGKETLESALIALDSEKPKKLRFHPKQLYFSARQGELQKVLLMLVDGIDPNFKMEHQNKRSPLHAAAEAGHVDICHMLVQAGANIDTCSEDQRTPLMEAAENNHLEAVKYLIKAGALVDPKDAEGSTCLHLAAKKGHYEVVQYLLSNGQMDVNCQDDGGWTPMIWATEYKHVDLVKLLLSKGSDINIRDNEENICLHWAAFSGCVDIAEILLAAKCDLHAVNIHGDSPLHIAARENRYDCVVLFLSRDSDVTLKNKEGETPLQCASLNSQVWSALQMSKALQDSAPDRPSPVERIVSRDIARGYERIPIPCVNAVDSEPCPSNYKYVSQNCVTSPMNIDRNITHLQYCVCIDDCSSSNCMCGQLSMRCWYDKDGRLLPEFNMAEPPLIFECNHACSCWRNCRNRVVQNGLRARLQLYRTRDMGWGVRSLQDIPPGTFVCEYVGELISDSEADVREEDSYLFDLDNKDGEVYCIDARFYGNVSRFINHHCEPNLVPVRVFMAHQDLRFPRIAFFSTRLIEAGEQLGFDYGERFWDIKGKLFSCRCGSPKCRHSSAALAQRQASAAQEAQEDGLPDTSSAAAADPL

B1: ILKAP (protein, UniProt Q9H0C8 1-392, looked up)
Integrin-linked …: MDLFGDLPEPERSPRPAAGKEAQKGPLLFDDLPPASSTDSGSGGPLLFDDLPPASSGDSGSLATSISQMVKTEGKGAKRKTSEEEKNGSEELVEKKVCKASSVIFGLKGYVAERKGEREEMQDAHVILNDITEECRPPSSLITRVSYFAVFDGHGGIRASKFAAQNLHQNLIRKFPKGDVISVEKTVKRCLLDTFKHTDEEFLKQASSQKPAWKDGSTATCVLAVDNILYIANLGDSRAILCRYNEESQKHAALSLSKEHNPTQYEERMRIQKAGGNVRDGRVLGVLEVSRSIGDGQYKRCGVTSVPDIRRCQLTPNDRFILLACDGLFKVFTPEEAVNFILSCLEDEKIQTREGKSAADARYEAACNRLANKAVQRGSADNVTVMVVRIGH
B2: MINA (protein, UniProt Q8IUF8 1-465, looked up)
Ribosomal oxygenase 2: MPKKAKPTGSGKEEGPAPCKQMKLEAAGGPSALNFDSPSSLFESLISPIKTETFFKEFWEQKPLLIQRDDPALATYYGSLFKLTDLKSLCSRGMYYGRDVNVCRCVNGKKKVLNKDGKAHFLQLRKDFDQKRATIQFHQPQRFKDELWRIQEKLECYFGSLVGSNVYITPAGSQGLPPHYDDVEVFILQLEGEKHWRLYHPTVPLAREYSVEAEERIGRPVHEFMLKPGDLLYFPRGTIHQADTPAGLAHSTHVTISTYQNNSWGDFLLDTISGLVFDTAKEDVELRTGIPRQLLLQVESTTVATRRLSGFLRTLADRLEGTKELLSSDMKKDFIMHRLPPYSAGDGAELSTPGGKLPRLDSVVRLQFKDHIVLTVLPDQDQSDEAQEKMVYIYHSLKNSRETHMMGNEEETEFHGLRFPLSHLDALKQIWNSPAISVKDLKLTTDEEKESLVLSLWTECLIQVV
B3: FAM98B (protein, UniProt Q52LJ0 1-433, looked up)
Protein FAM98B: MRGPEPGPQPTMEGDVLDTLEALGYKGPLLEEQALTKAAEGGLSSPEFSELCIWLGSQIKSLCNLEESITSAGRDDLESFQLEISGFLKEMACPYSVLISGDIKDRLKKKEDCLKLLLFLSTELQASQILQNKKHKNSQLDKNSEVYQEVQAMFDTLGIPKSTTSDIPHMLNQVESKVKDILSKVQKNHVGKPLLKMDLNSEQAEQLERINDALSCEYECRRRMLMKRLDVTVQSFGWSDRAKVKTDDIARIYQPKRYALSPKTTITMAHLLAAREDLSKIIRTSSGTSREKTACAINKVLMGRVPDRGGRPNEIEPPPPEMPPWQKRQEGGGGRGGWGGGGGGGGRGGGGGGGGRGGWGGGGGGWGGGGGGGGGWGGGGGGGRGGFQGRGDYGGRGGYGGRGGYGGRGYGDPYGGGGGGGGGGGGGGGYRRY
B4: PUM1 (protein, UniProt Q14671 2-1186, looked up)
Pumilio homolog 1: SVACVLKRKAVLWQDSFSPHLKHHPQEPANPNMPVVLTSGTGSQAQPQPAANQALAAGTHSSPVPGSIGVAGRSQDDAMVDYFFQRQHGEQLGGGGSGGGGYNNSKHRWPTGDNIHAEHQVRSMDELNHDFQALALEGRAMGEQLLPGKKFWETDESSKDGPKGIFLGDQWRDSAWGTSDHSVSQPIMVQRRPGQSFHVNSEVNSVLSPRSESGGLGVSMVEYVLSSSPGDSCLRKGGFGPRDADSDENDKGEKKNKGTFDGDKLGDLKEEGDVMDKTNGLPVQNGIDADVKDFSRTPGNCQNSANEVDLLGPNQNGSEGLAQLTSTNGAKPVEDFSNMESQSVPLDPMEHVGMEPLQFDYSGTQVPVDSAAATVGLFDYNSQQQLFQRPNALAVQQLTAAQQQQYALAAAHQPHIGLAPAAFVPNPYIISAAPPGTDPYTAGLAAAATLGPAVVPHQYYGVTPWGVYPASLFQQQAAAAAAATNSANQQTTPQAQQGQQQVLRGGASQRPLTPNQNQQGQQTDPLVAAAAVNSALAFGQGLAAGMPGYPVLAPAAYYDQTGALVVNAGARNGLGAPVRLVAPAPVIISSSAAQAAVAAAAASANGAAGGLAGTTNGPFRPLGTQQPQPQPQQQPNNNLASSSFYGNNSLNSNSQSSSLFSQGSAQPANTSLGFGSSSSLGATLGSALGGFGTAVANSNTGSGSRRDSLTGSSDLYKRTSSSLTPIGHSFYNGLSFSSSPGPVGMPLPSQGPGHSQTPPPSLSSHGSSSSLNLGGLTNGSGRYISAAPGAEAKYRSASSASSLFSPSSTLFSSSRLRYGMSDVMPSGRSRLLEDFRNNRYPNLQLREIAGHIMEFSQDQHGSRFIQLKLERATPAERQLVFNEILQAAYQLMVDVFGNYVIQKFFEFGSLEQKLALAERIRGHVLSLALQMYGCRVIQKALEFIPSDQQNEMVRELDGHVLKCVKDQNGNHVVQKCIECVQPQSLQFIIDAFKGQVFALSTHPYGCRVIQRILEHCLPDQTLPILEELHQHTEQLVQDQYGNYVIQHVLEHGRPEDKSKIVAEIRGNVLVLSQHKFASNVVEKCVTHASRTERAVLIDEVCTMNDGPHSALYTMMKDQYANYVVQKMIDVAEPGQRKIVMHKIRPHIATLRKYTYGKHILAKLEKYYMKNGVDLGPICGPPNGII
B5: HNRNPC (protein, UniProt P07910 2-306, looked up)
Heterogeneous nuclear …: ASNVTNKTDPRSMNSRVFIGNLNTLVVKKSDVEAIFSKYGKIVGCSVHKGFAFVQYVNERNARAAVAGEDGRMIAGQVLDINLAAEPKVNRGKAGVKRSAAEMYGSVTEHPSPSPLLSSSFDLDYDFQRDYYDRMYSYPARVPPPPPIARAVVPSKRQRVSGNTSRRGKSGFNSKSGQRGSSKSGKLKGDDLQAIKKELTQIKQKVDSLLENLEKIEKEQSKQAVEMKNDKSEEEQSSSSVKKDETNVKMESEGGADDSAEEGDLLDDDDNEDRGDDQLELIKDDEKEAEEGEDDRDSANGEDDS

test system: 3×MBT domain of L3MBTL1; assay: Triple SILAC pull-down, 3xMBT/3xMBTD355N ratio (cytoplasmic, nuclear and chromatin fractions of 293T cells); format: binding, human; conditions: SILAC ratio, pull-down 3xMBT vs 3xMBTD355N; experiment with UNC0638 in heavy SILAC media;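 also: proteins quantified with MaxQuant, requiring at least two unique peptides and quantification in both label directions, normalized to the mean of proteins from a digested loading control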

Compared with B1, B2 is lower in “3xMBT/D355N UNC Heavy” value: 3.22 log base 2 for the first, 2.27 log base 2 for the second.

First: B3
Second: B4
The “3xMBT/D355N UNC Heavy” value of the first is higher: 3.88 log base 2 for the first, 2.08 log base 2 for the second.

With B5 the “3xMBT/D355N UNC Heavy” value was 2.39 log base 2.

same assay, conditions: SILAC ratio, pull-down 3xMBT vs 3xMBTD355N; experiment with UNC0638 in light SILAC media

Going from B1 to B2, the “3xMBT/D355N UNC Light” value falls from 2.54 log base 2 to 2.12 log base 2.

Going from B3 to B4, the “3xMBT/D355N UNC Light” value falls from 3.18 log base 2 to 1.66 log base 2.

In the case of B5, the “3xMBT/D355N UNC Light” value is reported as 2.62 log base 2.

molecular target: T1, G9a and GLP; assay: Triple SILAC pull-down after UNC0638 treatment of 293T cells, DMSO/UNC0638 ratio of protein captured by 3×MBT; format: cell-based; set-up: cells were treated for 24 hours with UNC0638 at 2.5 μM or DMSO vehicle control; endogenous in cells; host or cells: HEK 293T; conditions: SILAC ratio DMSO/UNC0638 of protein pulled down with 3xMBT; UNC0638 in heavy SILAC media;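 also: mass spectrometry (Q-Exactive) SILAC quantitation, DMSO/UNC0638 ratio computed after subtracting 3×MBTD355N mutant pull-down background, only proteins with at least twofold 3×MBT over mutant signal considered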

Compared with B1, B2 is higher in “Relative to UNC0638 UNC Heavy” value: −0.07 log base 2 for the first, 0.34 log base 2 for the second.

First: B3
Second: B4
The “Relative to UNC0638 UNC Heavy” value of the first is lower: 0.11 log base 2 for the first, 0.35 log base 2 for the second.

In the case of B5, the “Relative to UNC0638 UNC Heavy” value is reported as 0.07 log base 2.

same assay, conditions: SILAC ratio DMSO/UNC0638 of protein pulled down with 3xMBT; UNC0638 in light SILAC media

First: B1
Second: B2
The “Relative to UNC0638 UNC Light” value of the first is higher: 0.33 log base 2 for the first, −0.08 log base 2 for the second.

First: B3
Second: B4
The “Relative to UNC0638 UNC Light” value of the first is higher: 0.14 log base 2 for the first, −0.08 log base 2 for the second.

In the case of B5, the “Relative to UNC0638 UNC Light” value is reported as 0.20 log base 2.

same assay, conditions: average of UNC Light and UNC Heavy experiments

B1 and B2 are the same in “Relative to UNC0638 Average” value: 0.13 log base 2 for the first, 0.13 log base 2 for the second.

B3 and B4 are the same in “Relative to UNC0638 Average” value: 0.13 log base 2 for the first, 0.13 log base 2 for the second.

B5 was tested, and the “Relative to UNC0638 Average” value was 0.13 log base 2.

— patent publication US20140274782A1, “AFFINITY REAGENTS AND METHODS FOR DETECTION, PURIFICATION, AND PROTEOMIC ANALYSIS OF METHYLATED PROTEINS” (The Board of Trustees of the Leland Stanford Junior …, priority 2013, published 2014)
